In article PMC7596997, “The selectivity filter of the mitochondrial protein import machinery” (BMC Biology, 2020):
No end group written: not given here.

Target: T1, cytosolic domain of yeast Tom70 (His-Tom70_(38–617)) (yeast (Saccharomyces cerevisiae), UniProt P07213 38-617)
T1 construct: Tom70, yeast, cytosolic domain, residues 38-617 of the protein of 617 amino acids; plasmid pET10N-Tom70(38–617); also called Tom70cd; isolated Tom70; source: E. coli BL21(DE3), purified (HisTrap, size exclusion; or Ni-NTA beads, batch method); not shown: His tag, N-terminal, kept
T1 sequence (looked up): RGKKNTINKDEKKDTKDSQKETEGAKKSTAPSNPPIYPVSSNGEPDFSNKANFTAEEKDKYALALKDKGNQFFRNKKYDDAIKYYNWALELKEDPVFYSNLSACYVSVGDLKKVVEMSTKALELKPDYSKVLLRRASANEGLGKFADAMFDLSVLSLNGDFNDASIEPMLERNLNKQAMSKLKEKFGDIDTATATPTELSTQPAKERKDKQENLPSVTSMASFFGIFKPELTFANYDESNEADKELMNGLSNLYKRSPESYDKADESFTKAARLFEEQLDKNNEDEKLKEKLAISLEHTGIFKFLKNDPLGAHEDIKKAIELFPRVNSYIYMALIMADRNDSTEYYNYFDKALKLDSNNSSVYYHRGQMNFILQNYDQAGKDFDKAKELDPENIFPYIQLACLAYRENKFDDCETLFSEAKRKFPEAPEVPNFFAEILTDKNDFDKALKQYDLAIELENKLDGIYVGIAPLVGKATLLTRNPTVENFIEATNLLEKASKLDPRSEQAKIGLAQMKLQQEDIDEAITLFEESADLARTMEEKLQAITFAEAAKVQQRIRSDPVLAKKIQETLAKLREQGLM
Experiment: pull-down; purified His-Tom70cd (50 pmol per 100 μl) pre-bound to Ni-NTA beads, incubated 40 min at 30 °C with typically 7% (v/v) reticulocyte lysate containing the [35S]-labelled protein; 10 mM MOPS/KOH, 20 mM imidazole, 150 mM KCl, 1% BSA, pH 7.2; eluted with 1 M imidazole, SDS-PAGE, phosphorimager; in some samples the bead-bound Tom70cd was pretreated with NEM and washed before the lysate was added
Conditions: one partner purified

B1: ML3-DHFR (matrix loop of AAC module III, residues 238–277, fused to DHFR) (domain or fragment, Neurospora crassa, UniProt P02723 238-277, looked up)
chain: PLDTIRRRMMMTSGEAVKYKSSFDAASQIVAKEGVKSLFK
modifications: also: fused to DHFR, [35S]-methionine label
notes: ADP/ATP carrier (AAC), Neurospora crassa, residues 238-277; plasmid pYES2-AAC(238–277)-DHFR; also called the construct containing only the matrix loop; AAC(238–277)-DHFR; source: in vitro translated (TNT coupled reticulocyte lysate, with [35S]-methionine), in lysate
percent of the total radiolabelled protein bound: < 1%
